The record followed here is publication PMC13379236 (Cell reports, 2026).

Entries after “also recorded” stand apart in the source; their conditions may differ.

The assay has as its system ZYG11B. Format: cell-based, human.

B1: NLRP1 Gly/N-degron: C-terminal fragment generated by 3C cleavage, which exposes the Gly/N-degron, begins at glycine-131 (protein)
chain: GSERRVLRQLPDTSGRRWREISASLLYQALPSSPDHESPSQESPNAPTSTAVLGSWGSPPQPSLAPREQEAPGTQWPLDETSGIYYTEIREREREKSEKGRPPWAAVVGTPPQAHTSLQPHHHPWEPSVRESLCSTWPWKNEDFNQKFTQLLLLQRPHPRSQDPLVKRSWPDYVEENRGHLIEIRDLFGPGLDTQEPRIVILQGAAGIGKSTLARQVKEAWGRGQLYGDRFQHVFYFSCRELAQSKVVSLAELIGKDGTATPAPIRQILSRPERLLFILDGVDEPGWVLQEPSSELCLHWSQPQPADALLGSLLGKTILPEASFLITARTTALQNLIPSLEQARWVEVLGFSESSRKEYFYRYFTDERQAIRAFRLVKSNKELWALCLVPWVSWLACTCLMQQMKRKEKLTLTSKTTTTLCLHYLAQALQAQPLGPQLRDLCSLAAEGIWQKKTLFSPDDLRKHGLDGAIISTFLKMGILQEHPIPLSYSFIHLCFQEFFAAMSYVLEDEKGRGKHSNCIIDLEKTLEAYGIHGLFGASTTRFLLGLLSDEGEREMENIFHCRLSQGRNLMQWVPSLQLLLQPHSLESLHCLYETRNKTFLTQVMAHFEEMGMCVETDMELLVCTFCIKFSRHVKKLQLIEGRQHRSTWSPTMVVLFRWVPVTDAYWQILFSVLKVTRNLKELDLSGNSLSHSAVKSLCKTLRRPRCLLETLRLAGCGLTAEDCKDLAFGLRANQTLTELDLSFNVLTDAGAKHLCQRLRQPSCKLQRLQLVSCGLTSDCCQDLASVLSASPSLKELDLQQNNLDDVGVRLLCEGLRHPACKLIRLGLDQTTLSDEMRQELRALEQEKPQLLIFSRRKPSVMTPTEGLDTGEMSNSTSSLKRQRLGSERAASHVAQANLKLLDVSKIFPIAEIAEESSPEVVPVELLCVPSPASQGDLHTKPLGTDDDFWGPTGPVATEVVDKEKNLYRVHFPVAGSYRWPNTGLCFVMREAVTVEIEFCVWDQFLGEINPQHSWMVAGPLLDIKAEPGAVEAVHLPHFVALQGGHVDTSLFQMAHFKEEGMLLEKPARVELHHIVLENPSFSPLGVLLKMIHNALRFIPVTSVVLLYHRVHPEEVTFHLYLIPSDCSIRKAIDDLEMKFQFVRIHKPPPLTPLYMGCRYTVSGSGSGMLEILPKELELCYRSPGEDQLFSEFYVGHLGSGIRLQVKDKKDETLVWEALVKPGDLMPATTLIPPARIAVPSPLDAPQLLHFVDQYREQLIARVTSVEVVLDKLHGQVLSQEQYERVLAENTRPSQMRKLFSLSQSWDRKCKDGLYQALKETHPHLIMELWEKGSKKGLLPLSS
On to B1, for which the “binding to ZYG11B Extended Surface I mutants” value is listed as “decreases the binding”, the “binding to ZYG11B Gly-pocket mutants” value is recorded as “abolishes the binding” and the “binding to ZYG11B R466A (Extended Surface II)” value is reported as “relatively strong reduction”.

B2: E133K: E133K mutation of NLRP1 (residue E3 of the Gly/N-degron) (protein)
chain: GSKRRVLRQLPDTSGRRWREISASLLYQALPSSPDHESPSQESPNAPTSTAVLGSWGSPPQPSLAPREQEAPGTQWPLDETSGIYYTEIREREREKSEKGRPPWAAVVGTPPQAHTSLQPHHHPWEPSVRESLCSTWPWKNEDFNQKFTQLLLLQRPHPRSQDPLVKRSWPDYVEENRGHLIEIRDLFGPGLDTQEPRIVILQGAAGIGKSTLARQVKEAWGRGQLYGDRFQHVFYFSCRELAQSKVVSLAELIGKDGTATPAPIRQILSRPERLLFILDGVDEPGWVLQEPSSELCLHWSQPQPADALLGSLLGKTILPEASFLITARTTALQNLIPSLEQARWVEVLGFSESSRKEYFYRYFTDERQAIRAFRLVKSNKELWALCLVPWVSWLACTCLMQQMKRKEKLTLTSKTTTTLCLHYLAQALQAQPLGPQLRDLCSLAAEGIWQKKTLFSPDDLRKHGLDGAIISTFLKMGILQEHPIPLSYSFIHLCFQEFFAAMSYVLEDEKGRGKHSNCIIDLEKTLEAYGIHGLFGASTTRFLLGLLSDEGEREMENIFHCRLSQGRNLMQWVPSLQLLLQPHSLESLHCLYETRNKTFLTQVMAHFEEMGMCVETDMELLVCTFCIKFSRHVKKLQLIEGRQHRSTWSPTMVVLFRWVPVTDAYWQILFSVLKVTRNLKELDLSGNSLSHSAVKSLCKTLRRPRCLLETLRLAGCGLTAEDCKDLAFGLRANQTLTELDLSFNVLTDAGAKHLCQRLRQPSCKLQRLQLVSCGLTSDCCQDLASVLSASPSLKELDLQQNNLDDVGVRLLCEGLRHPACKLIRLGLDQTTLSDEMRQELRALEQEKPQLLIFSRRKPSVMTPTEGLDTGEMSNSTSSLKRQRLGSERAASHVAQANLKLLDVSKIFPIAEIAEESSPEVVPVELLCVPSPASQGDLHTKPLGTDDDFWGPTGPVATEVVDKEKNLYRVHFPVAGSYRWPNTGLCFVMREAVTVEIEFCVWDQFLGEINPQHSWMVAGPLLDIKAEPGAVEAVHLPHFVALQGGHVDTSLFQMAHFKEEGMLLEKPARVELHHIVLENPSFSPLGVLLKMIHNALRFIPVTSVVLLYHRVHPEEVTFHLYLIPSDCSIRKAIDDLEMKFQFVRIHKPPPLTPLYMGCRYTVSGSGSGMLEILPKELELCYRSPGEDQLFSEFYVGHLGSGIRLQVKDKKDETLVWEALVKPGDLMPATTLIPPARIAVPSPLDAPQLLHFVDQYREQLIARVTSVEVVLDKLHGQVLSQEQYERVLAENTRPSQMRKLFSLSQSWDRKCKDGLYQALKETHPHLIMELWEKGSKKGLLPLSS
Take B2: the “interaction of NLRP1 mutants with ZYG11B” value was “decreases the interaction; also recorded: reduced binding to ZYG11B”.
